We go through nine molecules from US20200079833A1 (AstraZeneca / MedImmune, published 2020).

Starred links: 1 amine or outer side, 2 acyl side, 3 side chain; linkers in the order of their positions; H or OH if unused. Non-standard residues stand in square brackets, D forms with d. Groups on a side chain read outwards from the residue. Primed or numbered codes have the meaning given here. No end group written: not given here. *: point of attachment. Dodecanoyl(12-OPh(4-COOH)) = O=C(O)c1ccc(OCCCCCCCCCCCC(=O)*)cc1; γGlu = O=C(O)[C@H](CCC(=O)[*:2])N[*:1]; Stearoyl = CCCCCCCCCCCCCCCCCC(=O)*; αMeF = C[C@](N)(Cc1ccccc1)C(=O)O; αMeK = C[C@](N)(CCCCN)C(=O)O; Lauroyl = CCCCCCCCCCCC(=O)*; αMeS = C[C@](N)(CO)C(=O)O; PEG2′ = not defined here; Aib = CC(C)(N)C(=O)O; Ahx = NCCCCCC(=O)O

T1: GLP-1R (INS1e assay) (UniProt P32301 22-463, limits assumed)
T1 sequence (looked up): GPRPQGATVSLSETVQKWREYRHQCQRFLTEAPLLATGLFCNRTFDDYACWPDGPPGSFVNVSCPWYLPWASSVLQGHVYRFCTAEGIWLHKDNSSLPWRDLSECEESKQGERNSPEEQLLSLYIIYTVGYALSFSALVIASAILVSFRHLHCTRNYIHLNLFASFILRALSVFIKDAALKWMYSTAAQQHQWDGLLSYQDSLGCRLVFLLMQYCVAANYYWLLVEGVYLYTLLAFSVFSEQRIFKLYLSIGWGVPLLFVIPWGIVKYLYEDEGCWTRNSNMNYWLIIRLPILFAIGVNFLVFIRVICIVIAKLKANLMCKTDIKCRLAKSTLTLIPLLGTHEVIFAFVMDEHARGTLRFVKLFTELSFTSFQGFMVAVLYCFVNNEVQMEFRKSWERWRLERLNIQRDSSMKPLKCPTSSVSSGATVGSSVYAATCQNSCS

B1: SEQ ID NO 141 (peptide)
peptide: H[Aib]EGS[αMeF]TSDV[αMeS]S[αMeF]LEGEAAK([Ahx-Ahx-Dodecanoyl(12-OPh(4-COOH))])E[αMeF]IA[αMeF]VV[αMeK]GG-NH2
modifications: N-terminus assumed
SMILES: CC[C@H](C)[C@H](NC(=O)[C@](C)(Cc1ccccc1)NC(=O)[C@H](CCC(=O)O)NC(=O)[C@H](CCCCNC(=O)CCCCCNC(=O)CCCCCNC(=O)CCCCCCCCCCCOc1ccc(C(=O)O)cc1)NC(=O)[C@H](C)NC(=O)[C@H](C)NC(=O)[C@H](CCC(=O)O)NC(=O)CNC(=O)[C@H](CCC(=O)O)NC(=O)[C@H](CC(C)C)NC(=O)[C@](C)(Cc1ccccc1)NC(=O)[C@H](CO)NC(=O)[C@](C)(CO)NC(=O)[C@@H](NC(=O)[C@H](CC(=O)O)NC(=O)[C@H](CO)NC(=O)[C@@H](NC(=O)[C@](C)(Cc1ccccc1)NC(=O)[C@H](CO)NC(=O)CNC(=O)[C@H](CCC(=O)O)NC(=O)C(C)(C)NC(=O)[C@@H](N)Cc1c[nH]cn1)[C@@H](C)O)C(C)C)C(=O)N[C@@H](C)C(=O)N[C@@](C)(Cc1ccccc1)C(=O)N[C@H](C(=O)N[C@H](C(=O)N[C@@](C)(CCCCN)C(=O)NCC(=O)NCC(N)=O)C(C)C)C(C)C
B2: SEQ ID NO 132 (peptide)
peptide: H[Aib]EGS[αMeF]TSDV[αMeS]S[αMeF]LEGEAAK([Ahx-Ahx-Lauroyl])E[αMeF]IA[αMeF]VV[αMeK]GG-NH2
modifications: N-terminus assumed
SMILES: CCCCCCCCCCCC(=O)NCCCCCC(=O)NCCCCCC(=O)NCCCC[C@H](NC(=O)[C@H](C)NC(=O)[C@H](C)NC(=O)[C@H](CCC(=O)O)NC(=O)CNC(=O)[C@H](CCC(=O)O)NC(=O)[C@H](CC(C)C)NC(=O)[C@](C)(Cc1ccccc1)NC(=O)[C@H](CO)NC(=O)[C@](C)(CO)NC(=O)[C@@H](NC(=O)[C@H](CC(=O)O)NC(=O)[C@H](CO)NC(=O)[C@@H](NC(=O)[C@](C)(Cc1ccccc1)NC(=O)[C@H](CO)NC(=O)CNC(=O)[C@H](CCC(=O)O)NC(=O)C(C)(C)NC(=O)[C@@H](N)Cc1c[nH]cn1)[C@@H](C)O)C(C)C)C(=O)N[C@@H](CCC(=O)O)C(=O)N[C@@](C)(Cc1ccccc1)C(=O)N[C@H](C(=O)N[C@@H](C)C(=O)N[C@@](C)(Cc1ccccc1)C(=O)N[C@H](C(=O)N[C@H](C(=O)N[C@@](C)(CCCCN)C(=O)NCC(=O)NCC(N)=O)C(C)C)C(C)C)[C@@H](C)CC
B3: SEQ ID NO 137 (peptide)
peptide: H[Aib]EGS[αMeF]TSDV[αMeS]S[αMeF]LEGEAAK([γGlu-Dodecanoyl(12-OPh(4-COOH))])E[αMeF]IA[αMeF]VV[αMeK]GG-NH2
modifications: N-terminus assumed
SMILES: CC[C@H](C)[C@H](NC(=O)[C@](C)(Cc1ccccc1)NC(=O)[C@H](CCC(=O)O)NC(=O)[C@H](CCCCNC(=O)CC[C@H](NC(=O)CCCCCCCCCCCOc1ccc(C(=O)O)cc1)C(=O)O)NC(=O)[C@H](C)NC(=O)[C@H](C)NC(=O)[C@H](CCC(=O)O)NC(=O)CNC(=O)[C@H](CCC(=O)O)NC(=O)[C@H](CC(C)C)NC(=O)[C@](C)(Cc1ccccc1)NC(=O)[C@H](CO)NC(=O)[C@](C)(CO)NC(=O)[C@@H](NC(=O)[C@H](CC(=O)O)NC(=O)[C@H](CO)NC(=O)[C@@H](NC(=O)[C@](C)(Cc1ccccc1)NC(=O)[C@H](CO)NC(=O)CNC(=O)[C@H](CCC(=O)O)NC(=O)C(C)(C)NC(=O)[C@@H](N)Cc1c[nH]cn1)[C@@H](C)O)C(C)C)C(=O)N[C@@H](C)C(=O)N[C@@](C)(Cc1ccccc1)C(=O)N[C@H](C(=O)N[C@H](C(=O)N[C@@](C)(CCCCN)C(=O)NCC(=O)NCC(N)=O)C(C)C)C(C)C
B4: SEQ ID NO 140 (peptide)
peptide: H[Aib]EGS[αMeF]TSDV[αMeS]S[αMeF]LEGEAAK([Ahx-Dodecanoyl(12-OPh(4-COOH))])E[αMeF]IA[αMeF]VV[αMeK]GG-NH2
modifications: N-terminus assumed
SMILES: CC[C@H](C)[C@H](NC(=O)[C@](C)(Cc1ccccc1)NC(=O)[C@H](CCC(=O)O)NC(=O)[C@H](CCCCNC(=O)CCCCCNC(=O)CCCCCCCCCCCOc1ccc(C(=O)O)cc1)NC(=O)[C@H](C)NC(=O)[C@H](C)NC(=O)[C@H](CCC(=O)O)NC(=O)CNC(=O)[C@H](CCC(=O)O)NC(=O)[C@H](CC(C)C)NC(=O)[C@](C)(Cc1ccccc1)NC(=O)[C@H](CO)NC(=O)[C@](C)(CO)NC(=O)[C@@H](NC(=O)[C@H](CC(=O)O)NC(=O)[C@H](CO)NC(=O)[C@@H](NC(=O)[C@](C)(Cc1ccccc1)NC(=O)[C@H](CO)NC(=O)CNC(=O)[C@H](CCC(=O)O)NC(=O)C(C)(C)NC(=O)[C@@H](N)Cc1c[nH]cn1)[C@@H](C)O)C(C)C)C(=O)N[C@@H](C)C(=O)N[C@@](C)(Cc1ccccc1)C(=O)N[C@H](C(=O)N[C@H](C(=O)N[C@@](C)(CCCCN)C(=O)NCC(=O)NCC(N)=O)C(C)C)C(C)C

This assay concerns the target T1, GLP-1R (INS1e assay). The experiment in a line: cell-based or functional assay.
Take B1: the “INS1e assay EC50 GLP-1 R n1” value amounted to 0.0447 nM, the “INS1e assay EC50 GLP-1 R n2” value is 0.0367 nM and the “INS1e assay EC50 Mean pM GLP-1R” value amounted to 41 pM.

With B2, the “INS1e assay EC50 GLP-1 R n1” value turned out to be 0.129 nM, the “INS1e assay EC50 GLP-1 R n2” value was 0.115 nM and the “INS1e assay EC50 Mean pM GLP-1R” value turned out to be 122 pM.

Regarding H[Aib]EGS[αMeF]TSDV[αMeS]S[αMeF]LEGEAAK([PEG2′-PEG2′-Stearoyl])E[αMeF]IA[αMeF]VV[αMeK]GG-NH2 [SEQ ID NO 153], the “INS1e assay EC50 GLP-1 R n1” value was found to be 0.055 nM, the “INS1e assay EC50 GLP-1 R n2” value stood at 0.0612 nM and the “INS1e assay EC50 Mean pM GLP-1R” value amounted to 58 pM.

For the molecule H[Aib]EGS[αMeF]TSDV[αMeS]S[αMeF]LEGEAAK([PEG2′-PEG2′-PEG2′-Lauroyl])E[αMeF]IA[αMeF]VV[αMeK]GG-NH2 [SEQ ID NO 136], the “INS1e assay EC50 GLP-1 R n1” value amounted to 0.0526 nM, the “INS1e assay EC50 GLP-1 R n2” value is 0.0215 nM and the “INS1e assay EC50 Mean pM GLP-1R” value was determined as 37 pM.

Regarding H[Aib]EGS[αMeF]TSDV[αMeS]S[αMeF]LEGEAAK([PEG2′-Lauroyl])E[αMeF]IA[αMeF]VV[αMeK]GG-NH2 [SEQ ID NO 134], the “INS1e assay EC50 GLP-1 R n1” value turned out to be 0.168 nM, the “INS1e assay EC50 GLP-1 R n2” value amounted to 0.0776 nM and the “INS1e assay EC50 Mean pM GLP-1R” value is 123 pM.

With B3, the “INS1e assay EC50 GLP-1 R n1” value worked out at 0.0637 nM, the “INS1e assay EC50 GLP-1 R n2” value turned out to be 0.0362 nM and the “INS1e assay EC50 Mean pM GLP-1R” value turned out to be 50 pM.

As for B4, the “INS1e assay EC50 GLP-1 R n1” value stood at 0.0432 nM, the “INS1e assay EC50 GLP-1 R n2” value is 0.0167 nM and the “INS1e assay EC50 Mean pM GLP-1R” value was determined as 30 pM.

Regarding H[Aib]EGS[αMeF]TSDV[αMeS]S[αMeF]LEGEAAK([PEG2′-Dodecanoyl(12-OPh(4-COOH))])E[αMeF]IA[αMeF]VV[αMeK]GG-NH2 [SEQ ID NO 143], the “INS1e assay EC50 GLP-1 R n1” value was 0.0451 nM, the “INS1e assay EC50 GLP-1 R n2” value was 0.0227 nM and the “INS1e assay EC50 Mean pM GLP-1R” value was 34 pM.

As to H[Aib]EGS[αMeF]TSDV[αMeS]S[αMeF]LEGEAAK([PEG2′-PEG2′-Lauroyl])E[αMeF]IA[αMeF]VV[αMeK]GG-NH2 [SEQ ID NO 135], the “INS1e assay EC50 GLP-1 R n1” value was 0.0986 nM, the “INS1e assay EC50 GLP-1 R n2” value came out at 0.0593 nM and the “INS1e assay EC50 Mean pM GLP-1R” value was 79 pM.
